{"source": "patent US20220340685A1", "about": "“COMBINATION THERAPY WITH ENTPD2 AND CD73 ANTIBODIES” (Novartis AG, priority 2019, published 2022)", "molecules": {"B1": {"name": "mAb17: hybridoma-derived anti-human ENTPD2 lead inhibitory mAb (chimeric); VH/VL DNA SEQ ID NO: 234/238 (antibody, V domains shown)", "VH": "EVQLQQFGAELVKPGASVKISCKASGYTFTDYNMDWVKQSHGKSLEWIGDINPKYDISTYNQQFKGKATLTVDKSSSTAYMELRSLTSEDTAVYYCARRGFFLYYGINYYYFDVWGAGTTVTVSS", "VL": "QIVLTQSPAIMSASLGEEITLTCSASSSVSYIHWYQQKSGTSPTLLIYSTSNLASGVPSRFSGSGSGTFYSLTISSVEAEDAADYYCHQWSSYPWTFGGGTKLEIK", "modifications": "constant regions not cited"}}, "key": {"[1]": {"target": "T1, recombinant human ENTPD2 (residues 29-462) (Homo sapiens, UniProt Q9Y5L3)", "T1 construct": "residues 29-462 of human or cyno ENTPD2; GP67 signal peptide (N); made in house; host or cells: High Five (Trichoplusia ni) insect cells, baculovirus", "T1 sequence (Q9Y5L3 29-462)": "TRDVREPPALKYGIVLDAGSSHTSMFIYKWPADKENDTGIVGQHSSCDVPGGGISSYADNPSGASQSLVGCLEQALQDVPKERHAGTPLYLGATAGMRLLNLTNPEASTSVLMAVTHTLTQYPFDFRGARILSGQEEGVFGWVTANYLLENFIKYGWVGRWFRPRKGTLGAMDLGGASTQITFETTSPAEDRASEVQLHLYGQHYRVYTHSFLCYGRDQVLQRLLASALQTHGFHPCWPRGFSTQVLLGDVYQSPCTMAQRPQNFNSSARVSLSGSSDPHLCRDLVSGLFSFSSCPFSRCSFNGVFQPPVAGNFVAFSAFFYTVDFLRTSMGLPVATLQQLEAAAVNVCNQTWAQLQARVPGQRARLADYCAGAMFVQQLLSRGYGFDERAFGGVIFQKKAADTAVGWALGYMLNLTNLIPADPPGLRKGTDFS", "test": "Biochemical human ENTPD2 functional assay (Transcreener ADP2 TR-FRET)", "excerpt": "Biochemical and cell-based functional assays were developed in-house to understand functional impact of anti-ENTPD2 Abs against purified extracellular domain of ENTPD2 (residues 29-462), as well as against the fully intact protein in the context of the native cell-based conformation. ENTPD2 hydrolyzes ATP to ADP, which can subsequently be detected using the HTRF Transcreener ADP2 TR-FRET Red Assay (BellBrook Labs, Madison, Wis.) where ENTPD2-produced ADP would compete with the ADP Tracer for binding to the anti-ADP-Tb antibody. The resulting signal is inversely proportional to the concentration of ADP in the sample. […]\nHTRF signal (Emission at 620 nm and 665 nm) was assessed in both assays using the Envision plate reader in HTRF mode (Perkin Elmer, Waltham, Mass.). HTRF ratio was determined using the following formula: HTRF ratio=R=Emission at 665 nm/Emission at 620 nm×10,000. Subsequently % Residual Activity and % Inhibition were determined as follows:\nWhere R0% is the HTRF ratio of the negative control (0% enzyme activity), and R100% is the HTRF ratio of the positive control (100% enzyme activity). Data were analyzed in Microsoft Excel and graphed using GraphPad's Prism 7.0 software and IC50 values were obtained using non-linear regression, log (agonist) vs. response-variable slope (four parameters) analysis."}, "[2]": {"target": "T2, ENTPD2 (Homo sapiens, UniProt Q9Y5L3)", "T2 sequence (Q9Y5L3 1-495)": "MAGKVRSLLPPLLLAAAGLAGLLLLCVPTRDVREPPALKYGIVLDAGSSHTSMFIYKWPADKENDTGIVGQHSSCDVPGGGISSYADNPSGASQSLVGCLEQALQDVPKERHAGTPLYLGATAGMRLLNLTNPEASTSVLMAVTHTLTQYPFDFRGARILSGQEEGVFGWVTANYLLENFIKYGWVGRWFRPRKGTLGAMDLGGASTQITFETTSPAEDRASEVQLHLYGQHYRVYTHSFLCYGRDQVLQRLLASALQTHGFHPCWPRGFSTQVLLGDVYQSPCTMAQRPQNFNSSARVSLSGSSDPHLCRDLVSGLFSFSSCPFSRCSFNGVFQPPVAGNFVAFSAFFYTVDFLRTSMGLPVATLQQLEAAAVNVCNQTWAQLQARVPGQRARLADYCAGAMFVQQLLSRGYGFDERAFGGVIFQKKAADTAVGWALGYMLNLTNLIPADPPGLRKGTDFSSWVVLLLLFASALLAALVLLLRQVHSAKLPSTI", "test": "Cell-based screen of hybridoma-derived mAbs for inhibition of ATP hydrolysis by ENTPD2", "excerpt": "Hybridoma-derived mAbs were screened in a cell-based assay for inhibition of ATP hydrolysis by ENTPD2."}}}
{"molecule": "B1", "values": [{"measurement": "inhibition of the catalytic activity of recombinant human ENTPD2", "setting": "[1]", "value": "potently inhibit"}, {"measurement": "inhibition of ATP hydrolysis by ENTPD2 (screen outcome)", "setting": "[2]", "value": "lead inhibitory mAbs"}]}
